B1: POU domain, class 3, transcription factor 2, residues 262 to 338; numbered along this chain, P20265 (parent)
chain: EDTPTSDDLEQFAKQFKQRRIKLGFTQADVGLALGTLYGNVFSQTTICRFEALQLSFKNMCKLKPLLNKWLEEADSS
B2: Lysine-specific demethylase 2B, residues 656 to 722; numbered along this chain, Q8NHM5 (parent)
chain: LPHTAVCLVCGEAGKEDTVEEEEGKFNLMLMECSICNEIIHPGCLKIKESEGVVNDELPNCWECPKC

Variants of: B1
Experiment: abundance fitness (aPCA) (normalised: wild type 0, dead -1); higher = more abundant; growth selection in yeast, the domain comes from the species named
Details: Homo sapiens

Abundance fitness, by site and new letter:
S77: G 0.061 | R 0.054 | E -0.016 | C -0.184 | H -0.011 | A 0.115 | D -0.003 | N -0.169 | V 0.008 | T 0.073 | L -0.028 | F -0.155 | P 0.003 | I -0.031 | K -0.097 | W -0.105 | M -0.17
D75: Y -0.046 | W -0.085 | K -0.058 | I -0.089 | L -0.133 | T -0.014 | M -0.022 | F -0.3 | A 0.009 | R -0.058 | G -0.032 | V -0.135 | S 0.032 | P -0.106 | H -0.081 | C -0.161 | E 0.071 | N -0.032
S76: F -0.161 | L -0.099 | V 0.01 | K 0.021 | N 0.013 | R 0.028 | D 0.042 | Q 0.055 | C -0.075 | P -0.012 | H 0.023 | T -0.019 | G 0.004 | W -0.163 | M -0.021 | I -0.153 | Y -0.14 | A 0.05 | E 0.002

Variants of: B2
Experiment: as above
Details: Homo sapiens

Abundance fitness: each site, then its substitutions
V6: D -0.293 | K 0.194 | A -0.557 | S -0.094 | H 0.409 | Q -0.541 | L -0.004 | T 0.12 | W -0.759 | N -0.085 | E -0.378 | I 0.145 | G -0.64 | R -0.285 | P -0.124
L1: M 0.071 | R -0.185 | W -0.426 | N 1.01 | T 0.035 | H -0.174 | A -0.175 | C 0.414 | K -0.363 | G -0.129 | E -0.245 | Q -0.468 | F 0.761 | I 0.781 | S -0.069
V19: I -0.131 | E -0.469 | A -0.049 | H -0.24 | L 0.017 | D -0.459 | F 0.151 | G -0.193
P2: W 0.667 | K 0.78 | C 0.396 | N 0.758 | L 0.807 | Y 0.713 | E 0.854 | F 0.359 | T 0.844 | I 0.783 | R 0.664 | D 0.787 | S 0.729 | G 0.588 | Q 0.184 | A 0.708
C7: A -0.691 | D -0.902 | Y -1.04 | T -0.491 | R -0.908
E12: P -0.458 | W -0.224 | G 0.099 | N -0.365 | V -0.303 | M 0.089 | C -0.159 | T 0.045 | A -0.139 | I -0.357 | R -0.016 | Q 0.078
G11: N -0.382 | Q 0.129 | P -0.626 | W -0.533 | L 0.046 | F -0.063 | H -0.362 | R -0.051 | T -0.354 | E -0.174 | C -0.541 | M -0.308 | K 0.222 | A -0.139 | I -0.828 | S -0.113
E16: P -0.043 | F -0.497 | N -0.646 | A -0.378 | I -0.467 | D -0.609 | G -0.137 | Q 0.022 | M -0.148 | S -0.204 | R -0.148 | L -0.283 | C -0.556 | Y -0.786 | T 0.167 | V -0.258 | W -0.638
L8: P -0.433 | I 0.099 | S -0.34 | K 0.146 | D -0.573 | G -0.588 | M 0.172 | H -0.281 | E -0.584 | R 0.104
G14: V -0.139 | S -0.043 | N -0.003 | T -0.24 | A -0.428 | W -0.635 | Q -0.009 | E -0.395 | L -0.508 | K -0.229 | R 0.04 | C -1.04 | F 0.104 | I -0.418 | M -0.172
A5: P 0.006 | R 0.073 | D -0.726 | Q -0.095 | M 0.195 | S -0.192 | Y 0.625 | W 0.055 | K 0.038 | N -0.051 | G -0.338 | C 0.07 | E -0.696 | T 0.138 | L -0.004
V9: R -0.297 | C -0.817 | W -0.727 | N 0.239 | T 0.127 | A -0.042 | L -0.126 | F -0.257 | Q -0.635 | P -0.707 | D -0.287 | E -0.053 | M -0.049 | G -0.273 | S -0.1 | I 0.226 | K 0.088
A13: Q 0.471 | G 0.387 | D -0.138 | I 0.169 | R 0.443 | S 0.177 | K 0.175 | V 0.085 | M 0.286 | N -0.618 | E 0.214 | L -0.077 | Y -0.117 | C -0.297 | F 0.001 | W -0.228 | T -0.022 | H -0.437
T4: N -0.205 | G -0.623 | A -0.889 | R -0.979 | D -0.2 | C -0.395 | K -0.964 | V -0.947 | S -0.345 | E -0.448 | Q -0.729 | M -0.878 | I -0.288 | W -0.889 | L -1.21
D17: K -0.174 | V -0.088 | F -0.017 | N -0.035 | S -0.083 | A -0.173 | H 0.099 | G 0.104 | W -0.553 | M 0.392 | P -0.168 | I 0.068 | L -0.369 | T -0.194 | Y -0.315 | E -0.069 | Q -0.091 | R -0.066 | C 0.039
C10: P -0.517 | H -0.828 | F -0.868 | S -0.332 | Y -0.66 | W -1.14 | M -0.613 | L -1.01 | T -0.244 | Q -0.528 | K -0.124 | I -1.04 | V -1 | N -0.259 | R -0.53 | E -0.329 | A -0.37 | G -0.277
H3: V 0.234 | P -0.14 | N 0.177 | Q -0.015 | A -0.013 | Y -0.328 | E 0.34 | F -0.359 | L 0.048 | W -0.572 | M 0.478 | G 0.42 | K 0.506 | C -0.642 | T 0.147
K15: M 0.12 | T -0.202 | L -0.154 | C -0.611 | I -0.305 | E -0.175 | D -1.01 | Q -0.378 | W 0.017 | F -0.368 | H -0.65 | R -0.355 | A -0.525 | P -0.609 | N -0.751 | G -0.206 | Y -0.583
T18: W -0.331 | P -0.268 | A -0.514 | C -0.213 | F -0.113 | E -0.471 | K -0.131 | I -0.14 | M -0.092 | V -0.569 | G -0.399 | R -0.188 | N -0.026 | D -0.527 | L -0.042 | Q -0.062 | Y -0.427
